Laboratory results as given in the supplement of paper PMC10126150.
± gives the standard deviation of the averaged measurements.

Test system: ATP
Assay: switch fluorescence ratio, 500 uM ATP over buffer (Cy3 cluster intensity, sum of 5 cycles each) (fold (ratio)); higher = stronger signal-on switching upon ATP binding; sequences stand for … in TCGTCGGCAGCGTCAGATGTGTATAAGAGACAGTTTTTTTTTTTTTTTTTTTTTTTTT…TC
Settings: aptamer strand: ATP DNA aptamer (quencher-CACCTGGGGGAGTATTGCGGAGGAAGG + anchor), 100 nM annealed; ATP concentration: 500 uM
Outline: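 Switching-strand clusters labelled with Cy3 on a modified Illumina MiSeq flow-cell were annealed to 100 nM quencher-labelled ATP aptamer, imaged in selection buffer, and re-imaged after 15 min with 500 uM ATP at 22 °C. This was done over five cycles with NaOH stripping and re-annealing in between. The fluorescence ratio is summed target-cycle over summed buffer-cycle Cy3 intensity per cluster, averaged per switch-domain sequence, excluding clusters outside 100-1000 RFU.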
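Also: ATP exposure 15 min at 22 °C before imaging.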

Sequence | switch fluorescence ratio
CTAAGTATGG | 0.9938 ± 0.0096
CTAATAGTTT | 1 ± 0.032
CTAATATTAA | 0.999 ± 0.018
CTAATCGCTG | 1.05 ± 0.034
CTAATTAGAT | 1 ± 0.022
CTAATTATGA | 1.01 ± 0.048
CTAATTCTG | 0.98 ± 0.018
CTAATTGCGG | 1.01 ± 0.013
CTAATTGTTT | 0.973 ± 0.025
CTAATTTACA | 1.081 ± 0.0097
CTAATTTGCT | 1.04 ± 0.056
CTACAAAGGG | 1.005 ± 0.0037
CTACAGGGGG | 1.08 ± 0.018
CTACGATCGA | 1.02 ± 0.015
CTACGGGCTG | 0.9898 ± 0.0069
CTACTTTAGA | 0.993 ± 0.036
CTAGAAAGGG | 0.999 ± 0.02
CTAGAAGGCG | 1.02 ± 0.052
CTAGAATAGG | 0.985 ± 0.028
CTAGACAGTT | 0.997 ± 0.02
CTAGAGGCTG | 1.03 ± 0.073
CTAGAGGGAT | 1.02 ± 0.038
CTAGAGGGTA | 0.98923 ± 0.00094
CTAGATTCGT | 0.996 ± 0.017
CTAGCGAGGG | 1.01 ± 0.014

Sequence | switch fluorescence ratio
CTAGCGGCCA | 0.991 ± 0.012
CTAGCGGGGG | 0.993 ± 0.034
CTAGCTATGT | 1 ± 0.067
CTAGGAGTTT | 0.999 ± 0.011
CTAGGCAATG | 1.44 ± 0.67
CTAGGCCTGG | 1.013 ± 0.0081
CTAGGGGACG | 1.03 ± 0.032
CTAGGTAACG | 1.02 ± 0.033
CTAGGTCGGC | 0.994 ± 0.042
CTAGGTGGCT | 1.02 ± 0.073
CTAGGTGTG | 1.01 ± 0.082
CTAGGTTATG | 0.978 ± 0.01
CTAGGTTGAG | 0.983 ± 0.019
CTAGTAGGGG | 0.984 ± 0.022
CTAGTATATT | 0.993 ± 0.025
CTAGTCATGC | 1.06 ± 0.0097
CTAGTGCCAG | 1.016 ± 0.0069
CTAGTGCTTG | 1.008 ± 0.0032
CTAGTGGGGA | 1.01 ± 0.017
CTAGTGTCTC | 0.989 ± 0.025
CTAGTTCGTC | 0.972 ± 0.12
CTATAAAGTT | 0.979 ± 0.024
CTATAATAGG | 0.961 ± 0.01
CTATAATGAG | 0.9963 ± 0.0014
CTATACGGAG | 1.09 ± 0.13

Sequence | switch fluorescence ratio
CTATACGGTT | 0.983 ± 0.03
CTATAGAAAT | 0.9991 ± 0.0091
CTATATGTTG | 0.985 ± 0.053
CTATATTAGG | 0.997 ± 0.032
CTATCGTGGT | 0.9554 ± 0.0033
CTATGATTTG | 0.9976 ± 0.0042
CTATGCGTAC | 3.51 ± 0.89
CTATGGGATT | 0.983 ± 0.022
CTATGTATTG | 0.9695 ± 0.0096
CTATTAATGT | 0.989 ± 0.028
CTATTAGGTA | 0.977 ± 0.0046
CTATTCCACC | 1.02 ± 0.023
CTATTGGGTT | 1.02 ± 0.016
CTATTTCGGG | 0.979 ± 0.052
CTCAAAAGTT | 1.01 ± 0.026
CTCACAGGGG | 3.62 ± 0.1
CTCACATGGG | 1.07 ± 0.028
CTCAGAAACA | 1.02 ± 0.013
CTCAGCCATT | 1.36 ± 0.039
CTCAGGACAG | 0.995 ± 0.044
CTCAGGCG | 1.17 ± 0.23
CTCAGGGCGT | 0.97546 ± 0.00044
CTCATAAGTT | 1.01 ± 0.028
CTCATACGGG | 1.05 ± 0.036
CTCATATGGA | 1.01 ± 0.048

Sequence | switch fluorescence ratio
CTCATGTAAG | 1.009 ± 0.0014
CTCATGTTGG | 0.983 ± 0.015
CTCCACGGGA | 1.144 ± 0.011
CTCCAGTCAG | 1.51 ± 0.055
CTCCATGGTT | 1.06 ± 0.024
CTCCCTGGGT | 1.401 ± 0.013
CTCCGTTAGT | 3.1 ± 0.065
CTCCTTGTCG | 1.014 ± 0.0077
CTCGAATGTA | 0.994 ± 0.014
CTCGAGGGTA | 1 ± 0.022
CTCGATAGGT | 0.984 ± 0.028
CTCGCGAATT | 1.55 ± 0.49
CTCGCTGCGG | 1.029 ± 0.0073
CTCGGACCTT | 1.19 ± 0.017
CTCGGCGTCG | 1.03 ± 0.019
CTCGGGACGG | 1.005 ± 0.01
CTCGGGCAGG | 1.01 ± 0.032
CTCGGGGCGG | 1.02 ± 0.037
CTCGGGGGAG | 0.991 ± 0.026
CTCGGGGGGA | 1.01 ± 0.018
CTCGGGGGTT | 1.06 ± 0.08
CTCGGTGAGG | 0.991 ± 0.029
CTCGGTGTGG | 1 ± 0.033
CTCGGTTTAG | 1 ± 0.038
CTCGGTTTTT | 0.989 ± 0.035

Sequence | switch fluorescence ratio
CTCGTAATTG | 1.09 ± 0.052
CTCGTGAGTT | 1.02 ± 0.021
CTCGTTCGGC | 0.98 ± 0.024
CTCGTTTATC | 1.03 ± 0.032
CTCTAAGGCT | 1.007 ± 0.009
CTCTACGAGA | 0.983 ± 0.015
CTCTACTCAA | 1.37 ± 0.031
CTCTATAACT | 1.0133 ± 0.00043
CTCTATTGGG | 0.993 ± 0.014
CTCTCAAGGG | 1.088 ± 0.0077
CTCTCGGATG | 1.01 ± 0.011
CTCTCTAGCA | 1.4 ± 0.015
CTCTGAGGAG | 1.04 ± 0.035
CTCTGCAGTG | 3.7 ± 0.5
CTCTGTTTGG | 0.957 ± 0.021
CTCTTATAGT | 0.969 ± 0.019
CTCTTCTGGT | 0.971 ± 0.04
CTCTTGGAGA | 1.01 ± 0.026
CTCTTTGCGA | 1.404 ± 0.0035
CTCTTTGCTT | 1 ± 0.006
CTCTTTTTTT | 0.991 ± 0.014
CTGAAATTTT | 1.0192 ± 0.00063
CTGAACAGTA | 1.02 ± 0.033
CTGAACTATG | 1 ± 0.056
CTGAACTGTG | 0.989 ± 0.11

Sequence | switch fluorescence ratio
CTGAATACGT | 1.009 ± 0.0078
CTGAATTGGG | 0.999 ± 0.021
CTGACATGAG | 1 ± 0.032
CTGACCGGGT | 1.014 ± 0.0015
CTGACTCCAA | 2.94 ± 1.6
CTGACTTTTT | 1.02 ± 0.016
CTGAGCGGCT | 1.05 ± 0.051
CTGAGCTGTG | 0.968 ± 0.035
CTGAGGAAGT | 0.9908 ± 0.0088
CTGAGGCGCC | 1.01 ± 0.056
CTGAGTATGG | 1.01 ± 0.0034
CTGAGTGCGG | 1.02 ± 0.023
CTGAGTTACT | 1.027 ± 0.0025
CTGATATTTG | 0.998 ± 0.022
CTGATCTGTT | 0.998 ± 0.024
CTGATGGGGA | 0.961 ± 0.033
CTGATGTAGC | 1.21 ± 0.049
CTGATTCGGT | 0.9889 ± 0.0027
CTGATTGAGT | 0.9763 ± 0.0063
CTGATTGGGC | 1 ± 0.013
CTGATTTTAT | 0.9856 ± 0.0013
CTGATTTTTT | 1.02 ± 0.045
CTGCAACTAA | 2.27 ± 0.054
CTGCACGGAG | 1.01 ± 0.022
CTGCCTTGTT | 1 ± 0.015

Sequence | switch fluorescence ratio
CTGCGGGCCG | 1.004 ± 0.0073
CTGCTAAGTA | 1.01 ± 0.013
CTGCTAGGGG | 1.04 ± 0.034
CTGCTGGGGC | 1.05 ± 0.026
CTGCTTGGTT | 1.001 ± 0.0047
CTGGAAGCTA | 1.6 ± 0.1
CTGGAAGGGG | 1.04 ± 0.024
CTGGAAGTTT | 0.952 ± 0.044
CTGGATCCTG | 1.02 ± 0.053
CTGGATGGAG | 0.9934 ± 0.0047
CTGGATTAAT | 1.02 ± 0.04
CTGGATTTCA | 0.99 ± 0.027
CTGGCATGTA | 1.0141 ± 0.00098
CTGGCATTAT | 1.21 ± 0.038
CTGGCCTTTG | 0.983 ± 0.036
CTGGCGGATT | 0.985 ± 0.05
CTGGCGGGGA | 1.02 ± 0.025
CTGGCTAGGC | 1 ± 0.014
CTGGCTTTGG | 1.05 ± 0.043
CTGGCTTTTG | 0.999 ± 0.017
CTGGGAACGA | 0.998 ± 0.035
CTGGGACAGT | 0.995 ± 0.034
CTGGGAGGAT | 0.98788 ± 0.0003
CTGGGAGTGG | 1.04 ± 0.013
CTGGGATGTG | 0.98 ± 0.023

Sequence | switch fluorescence ratio
CTGGGATTGG | 1.001 ± 0.0039
CTGGGCACGT | 0.997 ± 0.023
CTGGGCAGGT | 1 ± 0.016
CTGGGGATTG | 1.01 ± 0.014
CTGGGGCGTC | 0.993 ± 0.045
CTGGGGGGAG | 1.01 ± 0.024
CTGGGGGGGA | 1.02 ± 0.022
CTGGGGGGGT | 0.994 ± 0.036
CTGGGGGTA | 0.9889 ± 0.0083
CTGGGGGTGG | 0.964 ± 0.011
CTGGGGTTCG | 1.0213 ± 0.00034
CTGGGTATGA | 1.01 ± 0.024
CTGGGTCCGG | 1.01 ± 0.024
CTGGGTGGGG | 1 ± 0.013
CTGGGTTGGC | 1.0029 ± 0.00048
CTGGGTTTCG | 0.974 ± 0.042
CTGGTAAGGA | 1.017 ± 0.0031
CTGGTATTAT | 1.017 ± 0.0046
CTGGTCCGGC | 1.01 ± 0.078
CTGGTGAGTT | 0.9789 ± 0.0012
CTGGTGGGAG | 0.9857 ± 0.0067
CTGGTGGGTC | 1.01 ± 0.018
CTGGTGTGGA | 1.034 ± 0.0058
CTGGTTAATT | 0.973 ± 0.017
CTGGTTTATA | 0.962 ± 0.027
